Positions of bridges follow the written chain, without caps; N, C: chain ends. No end group written: not given here. COCH2 = acetyl group that carries the bridge
target: T1, Recombinant Human FGFR1 alpha (IIIc) Fc Chimera Protein (Homo sapiens, UniProt P11362); assay: ELISA binding affinity of enzymatically synthesized peptide to FGFR; conditions: ELISA luminescence signal at 10 nmol/L peptide, SEQ ID NO: 239 standardized to 1; enzyme synthesis product
T1 construct: purchased R&D systems 658-FR-050
T1 sequence (P11362 with tags, fused parts or gaps limits assumed): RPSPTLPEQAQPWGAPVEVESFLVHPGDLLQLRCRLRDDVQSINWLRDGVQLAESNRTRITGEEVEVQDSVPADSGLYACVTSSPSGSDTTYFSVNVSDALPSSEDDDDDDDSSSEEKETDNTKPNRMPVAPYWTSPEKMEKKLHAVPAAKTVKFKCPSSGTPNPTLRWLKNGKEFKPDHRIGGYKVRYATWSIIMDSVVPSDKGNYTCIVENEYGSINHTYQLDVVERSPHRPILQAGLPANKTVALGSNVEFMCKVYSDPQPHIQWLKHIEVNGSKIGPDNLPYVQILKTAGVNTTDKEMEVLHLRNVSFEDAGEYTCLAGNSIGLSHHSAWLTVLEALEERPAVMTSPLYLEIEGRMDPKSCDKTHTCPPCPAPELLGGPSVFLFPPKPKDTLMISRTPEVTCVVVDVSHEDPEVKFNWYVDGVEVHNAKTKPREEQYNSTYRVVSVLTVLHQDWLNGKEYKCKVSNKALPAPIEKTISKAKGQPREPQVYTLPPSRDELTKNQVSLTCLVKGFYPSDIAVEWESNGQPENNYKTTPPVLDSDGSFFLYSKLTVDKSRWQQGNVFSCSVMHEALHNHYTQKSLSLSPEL
Description: The binding affinity of the peptide to FGFR was evaluated using an ELISA method.
The peptide used for the evaluation was enzymatically synthesized by the following method.
First, a fusion peptide (SEQ ID NO: 25) in which a translation enhancing sequence (SEQ ID NO: 22), a peptide, a Myc tag (SEQ ID NO: 23), and a HiBiT tag (SEQ ID NO: 24) were linked in this order was designed. Next, a template DNA sequence (SEQ ID NO: 26) was designed in which a T7 promoter sequence, a Shine-Dalgarno sequence, a sequence necessary for transcription and translation initiation, such as a start codon (ATG), was provided on the 5′ terminal side of the DNA sequence encoding the fused peptide, and a stop codon group was provided on the 3′ terminal side thereof. In a case where the triplet TAG codon is included in the template DNA sequence, the above-described codon is assigned to the codon of chloroacetylated lysine, and thus, the peptide encoded by the above-described DNA sequence is a cyclic peptide in which a thiol group of cysteine and a chloroacetyl group of chloroacetylated lysine spontaneously form a thioether bond.
The cell-free enzymatic synthesis of the polypeptide was performed in a translation solution containing a template DNA, PUREfrex 2.0 (GeneFrontier, PF201-0.25-5), and Aminoacyl tRNA (1). 1.75 μL ([…]) of the template DNA prepared to 50 ng/μL, 2.5 μL of PUREfrex 2.0 Solution I, 0.25 μL of Solution II, 0.5 μL of Solution III, and a dried product of Aminoacyl tRNA (1) (final concentration: 0.5 ng/μL) were mixed and mixture was subjected to a reaction at 37° C. for 1 hour.
The concentration of the enzymatically synthesized peptide was measured using the peptide diluted with Can Get Signal Immunoreaction Enhancer Solution I (TOYOBO, NKB-101), Nano-Glo HiBiT Lytic Detection System (Promega, N3040), and a chemical synthetic peptide for a calibration curve having a known concentration (SEQ ID NO: 33) according to the standard protocol of the Nano-Glo HiBiT Lytic Detection System.
The binding affinity of the enzymatically synthesized peptide to FGFR was measured by evaluating the amount of the peptide bound to FGFR by ELISA.
First, 5 ng of Recombinant Human FGFR1 alpha (IIIc) Fc Chimera Protein (R&D systems, 658-FR-050) was immobilized in each well of a 96-well plate, and blocked with Pierce Protein-Free (PBS) Blocking Buffer (Thermo, 37572), and a peptide diluted with Can Get Signal Immunoreaction Enhancer Solution I (TOYOBO, NKB-101) was then added and reacted at room temperature for 3 hours. After washing with 0.05% Tween 20-containing phosphate buffered saline (PBS), an anti-Myc antibody (Cell Signaling, 14038S) diluted with Can Get Signal Immunoreaction Enhancer Solution II (TOYOBO, NKB-101) was added and reacted at room temperature for 2 hours. After washing with 0.05% Tween 20-containing PBS, SuperSignal ELISA Femto Substrate (Thermo, 37075) was added, and the luminescence amount was measured. The dose-response relationship was calculated from using the difference between the luminescence amount in the well in which FGFR was immobilized and the luminescence amount in the well in which FGFR was not immobilized, and the concentration of the peptide at the time of reaction, and the binding affinity to FGFR was evaluated according to the following evaluation criteria. The evaluation result preferably satisfies the evaluation criteria A, B, or C.
In a case where a value of a luminescence signal emitted by the cyclic peptide set forth in SEQ ID NO: 239 at a reaction concentration of 10 nmol/L is standardized to 1, evaluation criteria of the luminescence signal value emitted by the peptide at a reaction concentration of 10 nmol/L is as follows. • A: 0.7 or more • B: 0.5 or more and less than 0.7 • C: 0.1 or more and less than 0.5 • D: less than 0.1.

Substance	Evaluation result of binding affinity to FGFR
77 (ICVYTWDAHAHSLHAALTK(COCH2)I; thioether 2-19 (inferred)) [compound 77]	B (0.5 or more and less than 0.7)
78 (ICVYTSDAHAHSLHAALTK(COCH2)I; thioether 2-19 (inferred)) [compound 78]	C (0.1 or more and less than 0.5)
79 (ICVYTHDAHAHSLHAALTK(COCH2)I; thioether 2-19 (inferred)) [compound 79]	C (0.1 or more and less than 0.5)
80 (ICVYTFAAHAHSLHAALTK(COCH2)I; thioether 2-19 (inferred)) [compound 80]	C (0.1 or more and less than 0.5)
81 (ICVYTFGAHAHSLHAALTK(COCH2)I; thioether 2-19 (inferred)) [compound 81]	C (0.1 or more and less than 0.5)
82 (ICVYTFPAHAHSLHAALTK(COCH2)I; thioether 2-19 (inferred)) [compound 82]	C (0.1 or more and less than 0.5)
83 (ICVYTFVAHAHSLHAALTK(COCH2)I; thioether 2-19 (inferred)) [compound 83]	C (0.1 or more and less than 0.5)
84 (ICVYTFFAHAHSLHAALTK(COCH2)I; thioether 2-19 (inferred)) [compound 84]	C (0.1 or more and less than 0.5)
85 (ICVYTFYAHAHSLHAALTK(COCH2)I; thioether 2-19 (inferred)) [compound 85]	C (0.1 or more and less than 0.5)
86 (ICVYTFWAHAHSLHAALTK(COCH2)I; thioether 2-19 (inferred)) [compound 86]	C (0.1 or more and less than 0.5)
87 (ICVYTFNAHAHSLHAALTK(COCH2)I; thioether 2-19 (inferred)) [compound 87]	A (0.7 or more)
88 (ICVYTFSAHAHSLHAALTK(COCH2)I; thioether 2-19 (inferred)) [compound 88]	C (0.1 or more and less than 0.5)
89 (ICVYTFDGHAHSLHAALTK(COCH2)I; thioether 2-19 (inferred)) [compound 89]	B (0.5 or more and less than 0.7)
90 (ICVYTFDPHAHSLHAALTK(COCH2)I; thioether 2-19 (inferred)) [compound 90]	B (0.5 or more and less than 0.7)
91 (ICVYTFDLHAHSLHAALTK(COCH2)I; thioether 2-19 (inferred)) [compound 91]	C (0.1 or more and less than 0.5)
92 (ICVYTFDIHAHSLHAALTK(COCH2)I; thioether 2-19 (inferred)) [compound 92]	C (0.1 or more and less than 0.5)
93 (ICVYTFDVHAHSLHAALTK(COCH2)I; thioether 2-19 (inferred)) [compound 93]	C (0.1 or more and less than 0.5)
94 (ICVYTFDYHAHSLHAALTK(COCH2)I; thioether 2-19 (inferred)) [compound 94]	C (0.1 or more and less than 0.5)
95 (ICVYTFDWHAHSLHAALTK(COCH2)I; thioether 2-19 (inferred)) [compound 95]	C (0.1 or more and less than 0.5)
96 (ICVYTFDNHAHSLHAALTK(COCH2)I; thioether 2-19 (inferred)) [compound 96]	C (0.1 or more and less than 0.5)

Substance	Evaluation result of binding affinity to FGFR
97 (ICVYTFDQHAHSLHAALTK(COCH2)I; thioether 2-19 (inferred)) [compound 97]	A (0.7 or more)
98 (ICVYTFDSHAHSLHAALTK(COCH2)I; thioether 2-19 (inferred)) [compound 98]	A (0.7 or more)
99 (ICVYTFDTHAHSLHAALTK(COCH2)I; thioether 2-19 (inferred)) [compound 99]	C (0.1 or more and less than 0.5)
100 (ICVYTFDEHAHSLHAALTKI; Description of Artificial Sequence: Cyclic peptide) [compound 100]	A (0.7 or more)
101 (ICVYTFDRHAHSLHAALTKI; Description of Artificial Sequence: Cyclic peptide) [compound 101]	A (0.7 or more)
102 (ICVYTFDHHAHSLHAALTKI; Description of Artificial Sequence: Cyclic peptide) [compound 102]	B (0.5 or more and less than 0.7)
103 (ICVYTFDAAAHSLHAALTKI; Description of Artificial Sequence: Cyclic peptide) [compound 103]	A (0.7 or more)
104 (ICVYTFDAGAHSLHAALTKI; Description of Artificial Sequence: Cyclic peptide) [compound 104]	A (0.7 or more)
105 (ICVYTFDALAHSLHAALTKI; Description of Artificial Sequence: Cyclic peptide) [compound 105]	A (0.7 or more)
106 (ICVYTFDAIAHSLHAALTKI; Description of Artificial Sequence: Cyclic peptide) [compound 106]	C (0.1 or more and less than 0.5)
107 (ICVYTFDAVAHSLHAALTKI; Description of Artificial Sequence: Cyclic peptide) [compound 107]	C (0.1 or more and less than 0.5)
108 (ICVYTFDAFAHSLHAALTKI; Description of Artificial Sequence: Cyclic peptide) [compound 108]	B (0.5 or more and less than 0.7)
109 (ICVYTFDAYAHSLHAALTKI; Description of Artificial Sequence: Cyclic peptide) [compound 109]	B (0.5 or more and less than 0.7)
110 (ICVYTFDAWAHSLHAALTKI; Description of Artificial Sequence: Cyclic peptide) [compound 110]	C (0.1 or more and less than 0.5)
111 (ICVYTFDANAHSLHAALTKI; Description of Artificial Sequence: Cyclic peptide) [compound 111]	A (0.7 or more)
112 (ICVYTFDAQAHSLHAALTKI; Description of Artificial Sequence: Cyclic peptide) [compound 112]	A (0.7 or more)
113 (ICVYTFDASAHSLHAALTKI; Description of Artificial Sequence: Cyclic peptide) [compound 113]	A (0.7 or more)
114 (ICVYTFDATAHSLHAALTKI; Description of Artificial Sequence: Cyclic peptide) [compound 114]	A (0.7 or more)
115 (ICVYTFDADAHSLHAALTKI; Description of Artificial Sequence: Cyclic peptide) [compound 115]	A (0.7 or more)
116 (ICVYTFDAEAHSLHAALTKI; Description of Artificial Sequence: Cyclic peptide) [compound 116]	A (0.7 or more)

From US20260008817A1, “CYCLIC PEPTIDE OR SALT THEREOF, AND USES THEREOF” (FUJIFILM Corporation, priority 2023, published 2026)
